Test results as given in publication PMC4361764, “TatBC-Independent TatA/Tat Substrate Interactions Contribute to Transport Efficiency” (PLoS ONE, 2015).

Biological target: the molecule itself
Assay: SEC; TatA-strep purified from the soluble fraction (Strep-Tactin), Superose 6, 10 mM Hepes pH 8.0, 150 mM NaCl, no detergent; Western blot of elution fractions

B1: Strep-tagged TatA from Escherichia coli (natural protein, UniProt P69428 1-89, looked up)
chain: MGGISIWQLLIIAVIVVLLFGTKKLGSIGSDLGASIKGFKKAMSDDEPKQDKTSQDADFTAKTIADKQADTNQEQAKTEDAKRHDKEQV
notes: TatA of Escherichia coli; The soluble form is a large association of many protomers; also called TatA-strep; soluble TatA-strep; source: E. coli DADE tatA-strep-tatBC (single-copy, wild-type level): in crude soluble extract; or purified from the soluble fraction (Strep-Tactin, Superose 6); not shown: Strep-tag, C-terminal, kept
binding result: binds
